From the supplement of paper PMC7877785 come the findings set out here.

± gives the uncertainty stated by the source.

This data set is described as follows: self-splicing fitness, log relative to wild type (ln ratio); higher = more splicing; Tetrahymena group I intron in knt gene, E. coli kanamycin selection, DiMSum; sequences stand for … in CUCUCU…GGAGGGAAAAGUUAUCAGGCAUGCACCUGGUAGCUAGUCUUUAAACCAAUAGAUUGCAUCGGUUUAAAAGGCAAGACCGUCAAAUUGCGGGAAAGGGGUCAACAGCCGUUCAGUACCAAGUCUCAGGGGAAACUUUGAGAUGGCCUUGCAAAGGGUAUGGUAAUAAGCUGACGGACAUGGUCCUAACCACGCAGCCAAGUCCUAAGUCAACAGAUCUUCUGUUGAUAUGGAUGCAGUUCACAGACUAAAUGUCGGUCGGGGAAGAUGUAUUCUUCUCAUAAGAUAUAGUCGGACCUCUCCUUAAUGGGAGCUAGCGGAUGAAGUGAUGCAACACUGGAGCCGCUGGGAACUAAUUUGUAUGCGAAAGUAUAUUGAUUAGUUUUGGAGUACUCGUGGUCG
An outline of the steps: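 Library with all eight P1ex-region intron nucleotides randomised, intron inside the knt kanamycin-resistance gene on pET-22b(+), in E. coli BL21(DE3). Cells grew overnight at 37°C or 30°C on LB agar with or without 25 μg/mL kanamycin (plus 100 μg/mL carbenicillin, 50 μM IPTG, 0.2% rhamnose), in six replicate transformations. Pooled colonies were amplicon-sequenced on Illumina HiSeq 2500. DiMSum fitness is the error-weighted combination of wild-type-normalised replicate fold changes, kanamycin versus none.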

As to UUACAGCAAUAUUACGAUUC, the “self-splicing fitness (ln)” value was -2.03 ± 0.092 (30 °C) and -0.667 ± 0.097 (37 °C). On the same counts, the results for UUACAGCAAUAUUACGCACA are -0.783 ± 0.12 and 0.168 ± 0.12. For UUACAGCAAUAUUACGCAUA the same measures were -1.34 ± 0.091 and -0.527 ± 0.1. Take UUACAGCAAUAUUACGCAUG: the “self-splicing fitness (ln)” value by setting is: (30 °C) -1.18 ± 0.069; (37 °C) -0.0513 ± 0.087. In the case of UUACAGCAAUAUUACGCCCG, the “self-splicing fitness (ln)” value reads like this: (30 °C) -0.115 ± 0.18; (37 °C) 0.245 ± 0.25. As for UUACAGCAAUAUUACGCCCU, the “self-splicing fitness (ln)” value (30 °C) was -2.55 ± 0.24 and the “self-splicing fitness (ln)” value (37 °C) was -0.401 ± 0.26. UUACAGCAAUAUUACGCCGA: the “self-splicing fitness (ln)” value (30 °C) was -1.29 ± 0.2 and the “self-splicing fitness (ln)” value (37 °C) was -0.354 ± 0.22. For the sequence UUACAGCAAUAUUACGCCGU, the “self-splicing fitness (ln)” value (37 °C) was -2.05 ± 0.31. Take UUACAGCAAUAUUACGCGAC: the “self-splicing fitness (ln)” value reads like this: (30 °C) -2.37 ± 0.17; (37 °C) -1.41 ± 0.18. In the case of UUACAGCAAUAUUACGCGCU, the “self-splicing fitness (ln)” value runs as follows: (30 °C) -2.93 ± 0.37; (37 °C) -2.04 ± 0.31. With UUACAGCAAUAUUACGCGUA, the “self-splicing fitness (ln)” value (30 °C) was -3.07 ± 0.2 and the “self-splicing fitness (ln)” value (37 °C) is -1.94 ± 0.16.

With UUACAGCAAUAUUACGCGUC, the “self-splicing fitness (ln)” value was -3.64 ± 0.2 (30 °C) and -1.32 ± 0.19 (37 °C). On the same counts, the results for UUACAGCAAUAUUACGCGUU are -3.05 ± 0.14 and -1.95 ± 0.15. In the case of UUACAGCAAUAUUACGCUGG, the “self-splicing fitness (ln)” value is -4.24 ± 0.32 (30 °C) and -2.08 ± 0.23 (37 °C). For the sequence UUACAGCAAUAUUACGGCCC, where the note is “30 °C”, the “self-splicing fitness (ln)” value was -0.167 ± 0.33. With UUACAGCAAUAUUACGGCGA, the “self-splicing fitness (ln)” value is, setting by setting: (30 °C) -0.0852 ± 0.081; (37 °C) 0.489 ± 0.11. Consider UUACAGCAAUAUUACGGGCG, for which the “self-splicing fitness (ln)” value was -0.655 ± 0.051 (30 °C) and 0.0547 ± 0.066 (37 °C).

In the case of UUACAGCAAUAUUACGGUAC, the “self-splicing fitness (ln)” value was -3.98 ± 0.22 (30 °C) and -2.26 ± 0.14 (37 °C). Regarding UUACAGCAAUAUUACGGUAG, the “self-splicing fitness (ln)” value was -1.92 ± 0.12 (30 °C) and -0.729 ± 0.13 (37 °C).

Consider UUACAGCAAUAUUACGUAAA, for which the “self-splicing fitness (ln)” value (30 °C) is -1.59 ± 0.13 and the “self-splicing fitness (ln)” value (37 °C) is -0.34 ± 0.12. In the case of UUACAGCAAUAUUACGUACG, the “self-splicing fitness (ln)” value was -0.291 ± 0.075 (30 °C) and 0.0876 ± 0.1 (37 °C).

With UUACAGCAAUAUUACGUAUU, the “self-splicing fitness (ln)” value is, setting by setting: (30 °C) -2.89 ± 0.14; (37 °C) -1.55 ± 0.12. Take UUACAGCAAUAUUACGUUAU: the “self-splicing fitness (ln)” value (30 °C) is -1.91 ± 0.087 and the “self-splicing fitness (ln)” value (37 °C) is -1.98 ± 0.14. Turning to UUAGAGCAAUAUUACGAACU, for the setting “37 °C”, the “self-splicing fitness (ln)” value is -1.92 ± 0.43.

Take UUAGAGCAAUAUUACGACCU: the “self-splicing fitness (ln)” value by setting is: (30 °C) -3.64 ± 0.41; (37 °C) -1.49 ± 0.43. On the same counts, the results for UUAGAGCAAUAUUACGAGAA are -1.75 ± 0.17 and -0.981 ± 0.21. Turning to UUAGAGCAAUAUUACGAGCC, the “self-splicing fitness (ln)” value (30 °C) is -0.789 ± 0.47.

On to UUAGAGCAAUAUUACGAGUG, for which the “self-splicing fitness (ln)” value runs as follows: (30 °C) -3.12 ± 0.16; (37 °C) -1.53 ± 0.13. Take UUAGAGCAAUAUUACGAUGU: the “self-splicing fitness (ln)” value by setting is: (30 °C) -2.59 ± 0.41; (37 °C) -2.43 ± 0.41. Take UUAGAGCAAUAUUACGCCUU: the “self-splicing fitness (ln)” value was -2.34 ± 0.13 (30 °C) and -1.08 ± 0.16 (37 °C). On the same counts, the results for UUAGAGCAAUAUUACGCGAA are -0.809 ± 0.14 and -0.155 ± 0.18.

Consider UUAGAGCAAUAUUACGCGUC, for which, for the setting “30 °C”, the “self-splicing fitness (ln)” value was -2.56 ± 0.29.

As to UUAGAGCAAUAUUACGGAAC, the “self-splicing fitness (ln)” value is, setting by setting: (30 °C) -4.11 ± 0.39; (37 °C) -2.33 ± 0.37. Take UUAGAGCAAUAUUACGGAUU: the “self-splicing fitness (ln)” value (30 °C) is -3.74 ± 0.28 and the “self-splicing fitness (ln)” value (37 °C) was -2.48 ± 0.27. Consider UUAGAGCAAUAUUACGGCGG, for which the “self-splicing fitness (ln)” value (30 °C) was -0.922 ± 0.14 and the “self-splicing fitness (ln)” value (37 °C) is 0.0643 ± 0.2.
